Data taken from PMC2504713 (Journal of Leukocyte Biology, 2008).

Legend:
[1] = target: Recombinant rat Nrp1, conjugated to an Fc fragment of human IgG1 (Nrp1-Fc) (rat) (UniProt Q9QWJ9); test: ELISA
[2] = target: T1, LAP C-terminal peptide QSSRHRR; test: ELISA
T1 peptide: Ac-QSSRHRR-OH

Active (mature) TGF-β1 (ligand)
IC50 [1]: 0.89 nM
Kd [1]: 0.04 nM

LAP-TGF-β1 (the latent form of TGF-β1) (from UniProt P01137 30-278) (complex)
EC50 [1]: 0.338 nM

B1: Recombinant rat Nrp1, conjugated to an Fc fragment of human IgG1 (Nrp1-Fc) (Fc fusion, UniProt Q9QWJ9 22-855, looked up)
chain: FRSDKCGGTIKIENPGYLTSPGYPHSYHPSEKCEWLIQAPEPYQRIMINFNPHFDLEDRDCKYDYVEVIDGENEGGRLWGKFCGKIAPSPVVSSGPFLFIKFVSDYETHGAGFSIRYEIFKRGPECSQNYTAPTGVIKSPGFPEKYPNSLECTYIIFAPKMSEIILEFESFDLEQDSNPPGGVFCRYDRLEIWDGFPEVGPHIGRYCGQKTPGRIRSSSGILSMVFYTDSAIAKEGFSANYSVLQSSISEDFKCMEALGMESGEIHSDQITASSQYGTNWSVERSRLNYPENGWTPGEDSYREWIQVDLGLLRFVTAVGTQGAISKETKKKYYVKTYRVDISSNGEDWITLKEGNKAIIFQGNTNPTDVVFGVFPKPLITRFVRIKPASWETGISMRFEVYGCKITDYPCSGMLGMVSGLISDSQITASNQGDRNWMPENIRLVTSRTGWALPPSPHPYINEWLQVDLGDEKIVRGVIIQGGKHRENKVFMRKFKIAYSNNGSDWKMIMDDSKRKAKSFEGNNNYDTPELRAFTPLSTRFIRIYPERATHSGLGLRMELLGCEVEVPTAGPTTPNGNPVDECDDDQANCHSGTGDDFQLTGGTTVLATEKPTIIDSTIQSEFPTYGFNCEFGWGSHKTFCHWEHDSHAQLRWRVLTSKTGPIQDHTGDGNFIYSQADENQKGKVARLVSPVVYSQSSAHCMTFWYHMSGSHVGTLRVKLHYQKPEEYDQLVWMVVGHQGDHWKEGRVLLHKSLKLYQVIFEGEIGKGNLGGIAVDDISINNHIPQEDCAKPTDLDKKNTEIKIDETGSTPGYEEGKGDKNISRKPGNVLKTLDP
EC50 [2]: 4.18 ± 0.99 nM
